According to paper PMC13541614 (2026):

Target: H5N1 influenza hemagglutinin (HA) of A/Vietnam/1203/2004, native (wild type) (Influenza A virus A/Vietnam/1203/2004 …, biotin on the AviTag (expressed in the presence of BirA))
Experiment: BLI

| Binder | Kd |
| --- | --- |
| 13D4 (broadly neutralizing antibody targeting the head region of HA), IgG (antibody, V domains shown) VH: QVQLQQSGAELMKPGASVKISCKATGYTFSGHWIEWVKQRPGHGLEWIGEILPGSGNIHYNEKFKGKATFAADTSSNTAYMQLSSLTSEDSAVYYCARLGTTAVERDWYFDVWGAGTTVTVSL VL: DIVMTQSQKFMSASVGDRVSVTCKASQNVGTHLAWYQQKPGQSPKALIYSASYRYSGVPDRFTGSGSGTDFTLTISNVQSGDLADYFCQQYNNFPLTFGAGTKLEIK | 0.64 nM |
| CR6261 (broadly neutralizing antibody targeting the stem region of HA), IgG (antibody, V domains shown) VH: EVQLVESGAEVKKPGSSVKVSCKASGGPFRSYAISWVRQAPGQGPEWMGGIIPIFGTTKYAPKFQGRVTITADDFAGTVYMELSSLRSEDTAMYYCAKHMGYQVRETMDVWGKGTTVTVSS VL: QSVLTQPPSVSAAPGQKVTISCSGSSSNIGNDYVSWYQQLPGTAPKLLIYDNNKRPSGIPDRFSGSKSGTSATLGITGLQTGDEANYYCATWDRRPTAYVVFGGGTKLTVL | 0.46 nM |
